These results are taken from publication PMC9440017, “Structural basis for Gemin5 decamer-mediated mRNA binding” (Nature Communications, 2022).

The target of data set [1] is G5C (Gemin5 841-1508) wild type (Homo sapiens) (UniProt Q8TEQ6). Description: fluorescence polarization. The conditions noted are these: EMSA: 20 mM Tris-HCl pH 7.5, 100 mM NaCl, 1 h on ice, 0.35 uM RNA; FP: 20 mM Tris-HCl pH 7.5, 150 mM NaCl, 10 nM RNA (40 nM U7), protein 0-41 uM, temperature ….
For data set [2], the system named is G5C A951E (Homo sapiens). Description: fluorescence polarization. To be noted: EMSA: 20 mM Tris-HCl pH 7.5, 100 mM NaCl, 1 h on ice, 0.35 uM RNA; FP: 20 mM Tris-HCl pH 7.5, 150 mM NaCl, 10 nM RNA (40 nM U7), protein 0-41 uM, temperature ….
Data set [3] relates to G5C M4 (Homo sapiens). The data set can be described thus: fluorescence polarization. The conditions noted are these: EMSA: 20 mM Tris-HCl pH 7.5, 100 mM NaCl, 1 h on ice, 0.35 uM RNA; FP: 20 mM Tris-HCl pH 7.5, 150 mM NaCl, 10 nM RNA (40 nM U7), protein 0-41 uM, temperature ….
Data set [4] deals with the molecule itself. Description: SEC; size-exclusion chromatography of purified G5C wild type and mutants against a molecular weight marker; self-association.
Data set [5] deals with the molecule itself. The data set can be described thus: SEC-MALS; Superose 6 Increase 10/300 GL coupled to DAWN HELEOS 8+; 100 ul at 1 mg/ml; 20 mM Tris-HCl pH 7.5, 330 mM NaCl; self-association.

Where a chain is given by its changes, count along the chain named. Names may count otherwise. “And” between values parts separate entries of the source, which are not always exact repeats. Equal entries are not always repeated.

As to SL1 RNA, FAM (FP), the Kd worked out at 6.5 µM in data set [1], 32 µM in data set [2] and 138 µM in data set [3].

B1: G5C K1363A/K1436A/R1437A/R1444A/K1492A mutant (domain or fragment, human, UniProt Q8TEQ6 841-1508, looked up)
chain: KKRKARSLLPLSTSLDHRSKEELHQDCLVLATAKHSRELNEDVSADVEERFHLGLFTDRATLYRMIDIEGKGHLENGHPELFHQLMLWKGDLKGVLQTAAERGELTDNLVAMAPAAGYHVWLWAVEAFAKQLCFQDQYVKAASHLLSIHKVYEAVELLKSNHFYREAIAIAKARLRPEDPVLKDLYLSWGTVLERDGHYAVAAKCYLGATCAYDAAKVLAKKGDAASLRTAAELAAIVGEDELSASLALRCAQELLLANNWVGAQEALQLHESLQGQRLVFCLLELLSRHLEEKQLSEGKSSSSYHTWNTGTEGPFVERVTAVWKSIFSLDTPEQYQEAFQKLQNIKYPSATNNTPAKQLLLHICHDLTLAVLSQQMASWDEAVQALLRAVVRSYDSGSFTIMQEVYSAFLPDGCDHLRDKLGDHQSPATPAFKSLEAFFLYGRLYEFWWSLSRPCPNSSVWVRAGHRTLSVEPSQQLDTASTEETDPETSQPEPNRPSELDLRLTEEGERMLSTFKELFSEAHASLQNSQRTVAEVQETLAEMIRQHQKSQLCKSTANGPDKNEPEVEAEQPLCSSQSQCKEEKNEPLSLPELTAALTEANQAMAKFPESIKAWPFPDVLECCLVLLLIRSHFPGCLAQEMQQQAQELLQAYGNTKTYRRHCQTFCM
notes: Gemin5, human, residues 841-1508 with K1363A, K1436A, R1437A, R1444A and K1492A; also called M5; source: E. coli BL21 (DE3), purified in the same way as wild-type G5C; not shown: His6, N-terminal, cleaved; copies: 10
In the case of B1, the “stoichiometry N” value in data set [4] was 10.

B2: G5C L1468D/L1469D double mutant (domain or fragment, human, UniProt Q8TEQ6 841-1508, looked up)
chain: B1 chain with A523K, A596K, A597R, A604R, L628D, L629D, A652K
notes: Gemin5, human, residues 841-1508 with L1468D and L1469D; also called M1; source: E. coli BL21 (DE3), purified in the same way as wild-type G5C; not shown: His6, N-terminal, cleaved
Consider B2, for which, in data set [4], the “stoichiometry N” value was 2 and 4.

B3: G5C L1381D/M1384D/I1385D triple mutant (domain or fragment, human, UniProt Q8TEQ6 841-1508, looked up)
chain: B1 chain with A523K, L541D, M544D, I545D, A596K, A597R, A604R, A652K
notes: Gemin5, human, residues 841-1508 with L1381D, M1384D and I1385D; also called M2; source: E. coli BL21 (DE3), purified in the same way as wild-type G5C; not shown: His6, N-terminal, cleaved
On to B3, for which the “stoichiometry N” value in data set [4] is 2 and 4.

B4: G5C R1035A/K1061A/K1062A/R1090A quadruple mutant (domain or fragment, human, UniProt Q8TEQ6 841-1508, looked up)
chain: B1 chain with R195A, K221A, K222A, R250A, A523K, A596K, A597R, A604R, A652K
notes: Gemin5, human, residues 841-1508 with R1035A, K1061A, K1062A and R1090A; also called M4; source: E. coli BL21 (DE3), purified in the same way as wild-type G5C; not shown: His6, N-terminal, cleaved; copies: 10
In the case of B4, the “stoichiometry N” value in data set [4] was 10.

B5: Gemin5 C-terminal fragment (Gemin5 841-1508), wild type (domain or fragment, human, UniProt Q8TEQ6 841-1508, looked up)
chain: B1 chain with A523K, A596K, A597R, A604R, A652K
notes: Gemin5, human, residues 841-1508 of the 1508-residue protein; Homodecamer (dimer of pentamers) by cryo-EM and static light scattering; also called G5C; G5C wild type; source: E. coli BL21 (DE3), purified (Ni-NTA, TEV cleavage, Superdex 200 gel filtration, mono Q); not shown: His6, N-terminal, cleaved; copies: 10
As to B5, the “stoichiometry N” value in data set [5] was 10.

B6: G5C L1469H single mutant (domain or fragment, human, UniProt Q8TEQ6 841-1508, looked up)
chain: B1 chain with A523K, A596K, A597R, A604R, L629H, A652K
notes: Gemin5, human, residues 841-1508 with L1469H; also called M3; source: E. coli BL21 (DE3), purified in the same way as wild-type G5C; not shown: His6, N-terminal, cleaved; copies: 10
Consider B6, for which the “stoichiometry N” value in data set [4] was determined as 10.
